Laboratory results reported in patent publication US20060099671.

Test system: human plasminogen
Sequence (chain, as listed by the source): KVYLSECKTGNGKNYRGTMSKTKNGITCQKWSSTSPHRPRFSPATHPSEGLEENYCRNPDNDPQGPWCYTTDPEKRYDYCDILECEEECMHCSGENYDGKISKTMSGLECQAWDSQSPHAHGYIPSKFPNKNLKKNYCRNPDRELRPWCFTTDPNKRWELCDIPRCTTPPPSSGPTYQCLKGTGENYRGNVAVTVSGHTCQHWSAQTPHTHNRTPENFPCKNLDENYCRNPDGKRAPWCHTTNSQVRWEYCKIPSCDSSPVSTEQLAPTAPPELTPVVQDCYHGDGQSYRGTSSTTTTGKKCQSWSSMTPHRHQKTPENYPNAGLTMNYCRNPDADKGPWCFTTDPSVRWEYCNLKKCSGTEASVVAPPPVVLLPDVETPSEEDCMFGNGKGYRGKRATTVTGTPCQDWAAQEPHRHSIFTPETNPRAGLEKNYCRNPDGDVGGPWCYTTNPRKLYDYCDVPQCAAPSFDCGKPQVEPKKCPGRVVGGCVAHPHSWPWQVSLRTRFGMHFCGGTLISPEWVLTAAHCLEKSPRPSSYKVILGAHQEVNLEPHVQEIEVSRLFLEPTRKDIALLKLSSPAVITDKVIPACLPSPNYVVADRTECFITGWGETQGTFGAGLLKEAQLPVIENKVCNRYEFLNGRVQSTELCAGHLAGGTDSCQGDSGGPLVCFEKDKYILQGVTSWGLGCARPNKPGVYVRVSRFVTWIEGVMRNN

Row | Substance | production of angiostatin (western blot) | conversion of plasminogen to plasmin (Coomassie-stained reduced polyacrylamide gels)
1 | tissue-type plasminogen activator (t-PA) | incubation of plasminogen (0.2 µM) with u-PA (0.2 nM), t-PA (1.0 nM), or streptokinase (8.0 nM) with 100 µM N-acetyl-L-cysteine resulted in the production of angiostatin | 
2 | urokinase-type plasminogen activator (u-PA) | incubation of plasminogen (0.2 µM) with u-PA (0.2 nM), t-PA (1.0 nM), or streptokinase (8.0 nM) with 100 µM N-acetyl-L-cysteine resulted in the production of angiostatin | The complete conversion of plasminogen to plasmin was confirmed
